Experimental findings from paper PMC6117947, “A role for trypanosomatid aldo-keto reductases in methylglyoxal, prostaglandin and isoprostane metabolism” (Biochemical Journal, 2018) are described below.

The target in data set [1] is Leishmania infantum prostaglandin F synthase 1 (LiPGFS1) (Leishmania infantum). Put plainly: SEC; Superdex 75 10/300; LiPGFS1 kept 96 h at 4°C without a reducing agent, run without TCEP; the dimer relies on a disulfide bond. In general terms: In gel filtration, larger molecules generally elute earlier.
Substrate in data set [2]: O=CC(=O)c1ccccc1
Put plainly: purified protein. Format: biochemical, Trypanosoma cruzi. The following applies: 100 µM NADPH, 25 mM HEPES, 150 mM NaCl, pH 7.33.

Substrate in data set [3]: O=Cc1ccccc1[N+](=O)[O-]
Briefly: purified protein. Format: biochemical, Trypanosoma cruzi. The note with it: 100 µM NADPH, 25 mM HEPES, 150 mM NaCl, pH 7.33.

Substrate in data set [4]: CC(=O)C=O
Briefly: purified protein. Format: biochemical, Trypanosoma cruzi. The note with it: 100 µM NADPH, 25 mM HEPES, 150 mM NaCl, pH 7.33.

Substrate in data set [5]: O=CC=O
Briefly: purified protein. The following applies: 100 µM NADPH, 25 mM HEPES, 150 mM NaCl, pH 7.33. Type of data set: biochemical, Trypanosoma cruzi.

Substrate in data set [6]: O=CC(O)CO
Briefly: purified protein. The note with it: 100 µM NADPH, 25 mM HEPES, 150 mM NaCl, pH 7.33. Format: biochemical, Trypanosoma cruzi.

Substrate in data set [7]: O=CC(=O)c1ccccc1
Put plainly: purified protein. The note with it: 100 µM NADPH, 25 mM HEPES, 150 mM NaCl, pH 7.33. Type of data set: biochemical, Leishmania infantum.

Substrate in data set [8]: O=Cc1ccc([N+](=O)[O-])cc1
Put plainly: purified protein. Type of data set: biochemical, Leishmania infantum. The note with it: 100 µM NADPH, 25 mM HEPES, 150 mM NaCl, pH 7.33.

Substrate in data set [9]: O=Cc1ccccc1[N+](=O)[O-]
Put plainly: purified protein. Format: biochemical, Leishmania infantum. The following applies: 100 µM NADPH, 25 mM HEPES, 150 mM NaCl, pH 7.33.

Substrate in data set [10]: CC(=O)C=O
Put plainly: purified protein. Format: biochemical, Leishmania infantum. The note with it: 100 µM NADPH, 25 mM HEPES, 150 mM NaCl, pH 7.33.

Substrate in data set [11]: O=CC(O)CO
Put plainly: purified protein. Format: biochemical, Leishmania infantum. The note with it: 100 µM NADPH, 25 mM HEPES, 150 mM NaCl, pH 7.33.

Substrate in data set [12]: O=Cc1cccc([N+](=O)[O-])c1
Briefly: purified protein. Format: biochemical, Leishmania infantum. The following applies: 100 µM NADPH, 25 mM HEPES, 150 mM NaCl, pH 7.33.

Substrate in data set [13]: O=CC=O
Briefly: purified protein. Format: biochemical, Leishmania infantum. The note with it: 100 µM NADPH, 25 mM HEPES, 150 mM NaCl, pH 7.33.

Substrate in data set [14]: O=Cc1cccc([N+](=O)[O-])c1
Put plainly: purified protein. Format: biochemical, Trypanosoma brucei. The following applies: 100 µM NADPH, 25 mM HEPES, 150 mM NaCl, pH 7.33.

Substrate in data set [15]: O=CC(=O)c1ccccc1
Briefly: purified protein. Type of data set: biochemical, Trypanosoma brucei. The following applies: 100 µM NADPH, 25 mM HEPES, 150 mM NaCl, pH 7.33.

Substrate in data set [16]: O=Cc1ccc([N+](=O)[O-])cc1
Put plainly: purified protein. Type of data set: biochemical, Trypanosoma brucei. The note with it: 100 µM NADPH, 25 mM HEPES, 150 mM NaCl, pH 7.33.

Substrate in data set [17]: O=Cc1ccccc1[N+](=O)[O-]
Briefly: purified protein. Format: biochemical, Trypanosoma brucei. The note with it: 100 µM NADPH, 25 mM HEPES, 150 mM NaCl, pH 7.33.

Substrate in data set [18]: CC(=O)C=O
Put plainly: purified protein. The following applies: 100 µM NADPH, 25 mM HEPES, 150 mM NaCl, pH 7.33. Format: biochemical, Trypanosoma brucei.

A word on the stoichiometry N: it is the number of molecules, sites or subunits per partner or assembly. With “Leishmania infantum prostaglandin F synthase 1 (LiPGFS1) (enzyme)”, in [1], the percent of the protein eluting as dimer worked out at 25% and the stoichiometry N worked out at 2.

B1: TcAKR (Trypanosoma cruzi) (protein)
chain: MNCNYNCVTLHNSAQMPQLGLGVWRAQDGAETANAVRWAIEAGYRHIDTACIYNNEKGVGQGIRESGVPREEVWVTTKVWNSDQGYEKTLAAFERSRELLGLEYIDLYLIHWPGKKKFVDTWKALEKLYEEKKVRAIGVSNFEPHHLTELFKSCKIRPMVNQVELHPLFQQRALREFCKQHNIAVTAWSPLGSGDEAGILKNHVLGEIAKKHNKSPAQVVIRWDIQHGIVTIPKSTNKGRIQENFNVWDFKLTEEEMRQIDELNEDKRIGADPDNFFPGGEE
notes: full-length ORF, pET15b-TEV, E. coli Rosetta (DE3) pLysS, His6 tag cut with TEV protease; monomer
In general, Km refers to the substrate concentration at which the rate is half of its maximum. Usually kcat stands for the number of substrate molecules converted per active site and unit of time at saturation. What is called kcat/Km is the turnover number divided by the Michaelis constant. B1: the Km in “purified protein [2]” amounted to 50 ± 3 µM; in the data set “purified protein [3]”, 710 ± 80 µM; in “purified protein [5]” it was 8300 ± 310 µM; in the data set “purified protein [6]”, 1500 ± 170 µM. In addition, the kcat in “purified protein [2]” is 4.46 ± 0.08 s⁻¹; in the data set “purified protein [3]”, 2.25 ± 0.11 s⁻¹; in “purified protein [4]”, 4.69 ± 0.03 s⁻¹; in the data set “purified protein [5]”, 4.56 ± 0.05 s⁻¹; in the data set “purified protein [6]”, 4.94 ± 0.11 s⁻¹. The kcat/Km in “purified protein [2]” was determined as 89200 M⁻¹ s⁻¹; in “purified protein [3]”, 3170 M⁻¹ s⁻¹; in the data set “purified protein [4]”, 19500 M⁻¹ s⁻¹; in “purified protein [5]” it was 549 M⁻¹ s⁻¹; in the data set “purified protein [6]”, 3290 M⁻¹ s⁻¹.

B2: LiPGFS1 (Leishmania infantum) (protein)
chain: MTGKCTHVTLGNGVQVPQLGIGTWEAKNGNEVVQNIKWAINAGYRHIDTAHYYKNEKGVGQGISECGVPRSDIFVTTKLWNYDHGYESALAAFEQSRQALGVEYVDLYLIHWPGPNRSYIETWRAFEKLYEMKKVRAIGVSNFEPHHLDDLLANCTVPPMVNQVEMHPHFQQKALRAYCAEKNIAVTAWRPLGKGALLTEPQLVELAEKHKRSAAQVIIRWLIQLGVIAIPKSSHEERIKQNFDVFDFELSPEDMRRLESMDKNSRIGPSPETFFPTECK
notes: synthetic full-length ORF (GeneART), pET15b-TEV, E. coli, His6 tag cut with TEV protease; mainly monomer
With B2, the Km amounted to 140 ± 8 µM in “purified protein [7]”; 430 ± 26 µM in the data set “purified protein [8]”; 320 ± 20 µM in “purified protein [9]”; 800 ± 70 µM in the data set “purified protein [10]”; 2870 ± 80 µM in “purified protein [11]”. The kcat came out at 10.4 ± 0.22 s⁻¹ in “purified protein [7]”; 0.48 ± 0.01 s⁻¹ in “purified protein [8]”; 8.5 ± 0.21 s⁻¹ in “purified protein [9]”; 8.72 ± 0.17 s⁻¹ in the data set “purified protein [10]”; 8.72 ± 0.11 s⁻¹ in the data set “purified protein [11]”. The kcat/Km in the data set “purified protein [7]” was 74300 M⁻¹ s⁻¹; in “purified protein [8]” it was 1110 M⁻¹ s⁻¹; in the data set “purified protein [9]” it was 26600 M⁻¹ s⁻¹; in “purified protein [10]”, 10900 M⁻¹ s⁻¹; in “purified protein [11]”, 3040 M⁻¹ s⁻¹.

B3: LiPGFS2 (Leishmania infantum) (protein)
chain: MADVGKAMVTLSNGVQMPQLGLGVWQSPAGEVTANAVKWALCAGYRHIDTAAIYKNEESVGAGLRASGVPREDVFITTKLWNTEQGYESTLAAFEESRQKLGVDYIDLYLIHWPRGKDIVSKEGKKYLDSWRAFEQLYKDKKVRAIGVSNFHIHHLEDVLAMCTVTPMVNQVELHPLNNQAELRAFCDAKQIKVEAWSPLGQGKLLSNPILAAIGAKYNKTAAQVILRWNIQKNLITIPKSVHKERIEENADVFNFELGAEDVMRIDALNTNSRYGPDPDEAQF
notes: full-length ORF from genomic DNA, pET15b-TEV, E. coli, His6 tag cut with TEV protease; monomer
With B3, the Km in “purified protein [12]” stood at 2 ± 0.3 µM; in the data set “purified protein [8]” it was 4 ± 0.6 µM; in “purified protein [9]” it was 2.4 ± 0.3 µM; in the data set “purified protein [13]”, 560 ± 50 µM. Moreover, the kcat was 1.04 ± 0.02 s⁻¹ in “purified protein [12]”; 1.13 ± 0.05 s⁻¹ in “purified protein [8]”; 1.04 ± 0.02 s⁻¹ in “purified protein [9]”; 1.13 ± 0.01 s⁻¹ in “purified protein [10]”; 1.05 ± 0.02 s⁻¹ in the data set “purified protein [13]”. Besides, the kcat/Km in “purified protein [12]” was 520000 M⁻¹ s⁻¹; in “purified protein [8]”, 283000 M⁻¹ s⁻¹; in “purified protein [9]” it was 433000 M⁻¹ s⁻¹; in “purified protein [10]”, 56500 M⁻¹ s⁻¹; in the data set “purified protein [13]”, 1880 M⁻¹ s⁻¹.

B4: TbPGFS (Trypanosoma brucei brucei) (protein)
chain: MALTQSLKLSNGVMMPVLGFGMWKLQDGNEAETATMWAIKSGYRHIDTAAIYKNEESAGRAIASCGVPREELFVTTKLWNSDQGYESTLSAFEKSIKKLGLEYVDLYLIHWPGKDKFIDTWKAFEKLYADKKVRAIGVSNFHEHHIEELLKHCKVAPMVNQIELHPLLNQKALCEYCKSKNIAVTAWSPLGQGHLVEDARLKAIGGKYGKTAAQVMLRWEIQAGVITIPKSGNEARIKENGNIFDFELTAEDIQVIDGMNAGHRYGPDPEVFMNDF
notes: as for B3
As to B4, the Km is 2 ± 0.1 µM in the data set “purified protein [14]”, 5 ± 0.8 µM in the data set “purified protein [15]”, 4.3 ± 0.2 µM in “purified protein [16]” and 3 ± 0.3 µM in the data set “purified protein [17]”. The kcat in “purified protein [14]” was 0.34 ± 0.005 s⁻¹; in “purified protein [15]”, 0.34 ± 0.014 s⁻¹; in the data set “purified protein [16]”, 0.43 ± 0.008 s⁻¹; in the data set “purified protein [17]” it was 0.41 ± 0.002 s⁻¹; in the data set “purified protein [18]” it was 0.38 ± 0.007 s⁻¹. The kcat/Km in the data set “purified protein [14]” is 170000 M⁻¹ s⁻¹; in “purified protein [15]”, 68000 M⁻¹ s⁻¹; in “purified protein [16]”, 100000 M⁻¹ s⁻¹; in “purified protein [17]” it was 140000 M⁻¹ s⁻¹; in “purified protein [18]”, 38000 M⁻¹ s⁻¹.
